Tests used:
[1] = target: full-length human LOXL2 protein (human) (UniProt Q9Y4K0); experiment: ELISA, LOXL2 coated
[2] = target: full-length human LOXL2 protein (human) (UniProt Q9Y4K0); experiment: cell-based or functional assay

UniProt Q9Y4K0, sequence (Q9Y4K0 other isoform, or with tags, fused parts or gaps): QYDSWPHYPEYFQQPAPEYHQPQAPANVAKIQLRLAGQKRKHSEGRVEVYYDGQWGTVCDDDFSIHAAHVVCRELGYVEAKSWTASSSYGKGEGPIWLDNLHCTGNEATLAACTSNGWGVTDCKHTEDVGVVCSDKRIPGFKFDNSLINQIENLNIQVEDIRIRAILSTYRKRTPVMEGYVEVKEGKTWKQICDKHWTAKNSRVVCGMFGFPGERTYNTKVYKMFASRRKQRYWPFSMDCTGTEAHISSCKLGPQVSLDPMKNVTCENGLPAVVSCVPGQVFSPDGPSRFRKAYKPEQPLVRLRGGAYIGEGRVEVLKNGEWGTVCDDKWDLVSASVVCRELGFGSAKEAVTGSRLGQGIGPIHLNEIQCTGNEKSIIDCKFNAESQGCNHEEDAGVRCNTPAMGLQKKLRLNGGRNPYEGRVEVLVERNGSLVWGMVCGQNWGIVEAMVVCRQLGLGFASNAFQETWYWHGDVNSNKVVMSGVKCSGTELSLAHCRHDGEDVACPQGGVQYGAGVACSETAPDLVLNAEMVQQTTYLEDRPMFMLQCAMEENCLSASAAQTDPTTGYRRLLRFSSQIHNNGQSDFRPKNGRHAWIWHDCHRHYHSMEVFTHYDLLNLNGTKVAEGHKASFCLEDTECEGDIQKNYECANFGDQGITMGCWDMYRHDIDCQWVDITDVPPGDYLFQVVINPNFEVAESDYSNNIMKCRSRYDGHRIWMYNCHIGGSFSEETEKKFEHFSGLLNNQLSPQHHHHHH

B1: AB0023 (antibody, from another filing, V domains shown)
VH: QVQLQQSGAELVRPGTSVKVSCKASGYAFTYYLIEWVKQRPGQGLEWIGVINPGSGGTNYNEKFKGKATLTADKSSSTAYMQLSSLTSDDSAVYFCARNWMNFDYWGQGTTLTVSS
VL: DIVMTQAAPSVSVTPGESVSISCRSSKSLLHSNGNTYLYWFLQRPGQSPQFLIYRMSNLASGVPDRFSGSGSGTAFTLRISRVEAEDVGVYYCMQHLEYPYTFGGGTKLEIK
For B1, the Kd [1] was < 1 nM and the IC50′ (nM), inhibition of LOXL2 enzymatic activity (Amplex Red assay); substrate DAP, collagen [2] was 62 nM.

From patent US20140302524A1
